These results are taken from patent publication US5639616, “Isolated nucleic acid encoding a ubiquitous nuclear receptor” (Arch Development Corporation).

Data set [1] addresses human retinoid X receptor alpha (hRXRα) (human) (UniProt P19793).
Data set [2] deals with T1, rUR DNA-binding domain (UR-DBD) (Rattus norvegicus, UniProt Q62755 SEQ:72-168).
T1 sequence: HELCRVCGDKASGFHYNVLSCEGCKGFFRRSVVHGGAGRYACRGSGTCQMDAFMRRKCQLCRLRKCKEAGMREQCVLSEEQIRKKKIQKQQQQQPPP
The data set can be described thus: EMSA; monomer binding. The conditions noted are these: tags: His tag, pET15b fusion, E. coli; label: 32P; 4-nt 5' overhangs. How it is done:
(§1) The DNA-binding ability of this domain was tested by gel-shift analyses with a set of oligonucleotides that contained AGGTCA direct repeats with 0 to 6 oligonucleotide spacing (shown above).
(§2) A segment of UR containing the DBD and a few amino acids of the hinge region (rUR amino acid residues 72 to 168) was expressed as a fusion protein using the E. coli expression vector PET15b and purified by affinity (Ni^+2/His-tag) chromatography. The DNA-binding ability of this domain was tested by gel shift analysis with a set of oligonucleotides that contained AGGTCA direct repeats with 0 to 6 oligonucleotide spacing. The UR fusion protein bound to all these direct repeats as a monomer, and optimum spacing for homodimer binding was 4 and 5 nucleotides, which is identical to a retinoic acid receptor response element (RARE). A hinge region peptide antibody super-shifted UR DBD homodimers bound to DR-4 and DR-5. Supershifting of monomer was not observed.

The target in data set [3] is T1, rUR DNA-binding domain (UR-DBD). Kind of data set: EMSA; monomer plus homodimer; optimum homodimer spacing, supershifted by hinge antibody. As to conditions: tags: His tag, pET15b fusion, E. coli; label: 32P; 4-nt 5' overhangs. How it is done: as §1, §2
The target is the same in data set [4]. Kind of data set: EMSA; monomer plus homodimer; homodimer best on DR-4 and DR-5, supershifted by hinge antibody. The conditions noted are these: tags: His tag, pET15b fusion, E. coli; label: 32P; 4-nt 5' overhangs. How it is done:
as §1, §2

As for “rat ubiquitous nuclear receptor (rUR), full-length”, the CAT activity of a DR-4 CAT reporter in COS-1 cells, absence of 9c-RA in data set [1] fell in the range of 4 to 5 fold.

B1: DR-6 (dsDNA)
DNA 1: GATCCTCAGGTCACCAAGGAGGTCAGAAGCT
DNA 2: AGCTTCTGACCTCCTTGGTGACCTGAGGATC
In the case of B1, the binding result in data set [2] was “binds”.

B2: DR-2 (dsDNA)
DNA 1: GATCCTCAGGTCAAGAGGTCAGAAGCT
DNA 2: AGCTTCTGACCTCTTGACCTGAGGATC
As for B2, in data set [2], the binding result is “binds”.

B3: DR-3 (dsDNA)
DNA 1: GATCCTCAGGTCAAGGAGGTCAGAAGCT
DNA 2: AGCTTCTGACCTCCTTGACCTGAGGATC
Consider B3, for which the binding result in data set [2] was “binds”.

B4: DR-5 (dsDNA)
DNA 1: GATCCTCAGGTCACCAGGAGGTCAGAAGCT
DNA 2: AGCTTCTGACCTCCTGGTGACCTGAGGATC
As to B4, the binding result in data set [3] is recorded as “binds”.

B5: DR-0 (dsDNA)
DNA 1: GATCCTCAGGTCAAGGTCAGAAGCT
DNA 2: AGCTTCTGACCTTGACCTGAGGATC
In the case of B5, the binding result in data set [2] was “binds”.

B6: DR-4 (dsDNA)
DNA 1: GATCCTCAGGTCACAGGAGGTCAGAAGCT
DNA 2: AGCTTCTGACCTCCTGTGACCTGAGGATC
Take B6: the binding result in data set [4] is on record as “binds”.

B7: DR-1 (dsDNA)
DNA 1: GATCCTCAGGTCAGAGGTCAGAAGCT
DNA 2: AGCTTCTGACCTCTGACCTGAGGATC
As to B7, the binding result in data set [2] is recorded as “binds”.
